Reference: paper doi:10.1101/2023.06.09.544317

Target: tRNA pseudouridine synthase from archaea (Q8U2C1) (P. furiosus)
Experiment: mass photometry

- stoichiometry N: 2
Substance: tRNA pseudouridine synthase from archaea (Q8U2C1) (enzyme)
